Test results taken from the DeepSol protein solubility set.

Assay: soluble on expression in E. coli; label from the status in PepcDB or PDB records

Row | Sequence | soluble on expression in E. coli
1 | MKQSKIIVAGIGPGSEQDITPAVLAAVREADVVVGYKYYFRFIRDFVRPDAECIDTGMKRERARAEQAFEYAEQGKTVCVISSGDAGIYGMTPLIYEMKRERQSNVEIIALPGISAFQKAASLLGAPIGHDFCVISLSDLMTPWERIERRILAAAQADFVTAVYNPKSDGRYWQIYRLREIFLREGRSPETPVGYVRQAGREEQEIHITTLAAFDPETVDMFTVVLIGNSQTYTFNQNIITPRGYYRETRSEATGIGQDIMIRSFRTIETELKNRDIPLDRKWALLHAIHTTADFEMERLLYTDPNAVASLYDAIRTGNLRTIVTDVTMAASGIRKGALQRLGVEVKCYLNDERVAEMATSKGITRTQAGIRLAVEEHPDALFVFGNAPTALMELCDLIRKEKAQPAGIVAAPVGFVHVEESKHMTKPFTHIPKLIVEGRKGGSNLAATLVNAILCYPDAEQLRPGRDV | soluble
2 | MSLDNDIFKLNVYIKNIDTSKSNLRYTEGYLQSLTNILTRAKEIAIQGASGTYESDDKKMISKEVNALLEDVVAIANAKGPDGYSIFSGTKIDSEAFKVTRENKISKTSKDGAGPQIIKVEYNGNQAEKKTEVYNDIHMSNNYPGNVIFFLQNQNIISSINTNGFAVKENTKIYIDNIEIGLTAGDTALDIVAKINESSAPVEASIDPVLNSLSIKTTTPHQIWITEEKESNVLQTLGILTKNNDTKLPPYNLSSSTEVRSRSIFDALIELRDTLYNNKEELVGSRSLAEIDESLKRLLISVADLGAKENRLDRSYERISKEAADMKEDMIQYTDLDVTKAITNLNMASLAYQVSIGISAKIMQTTLLDFIKEGHHHHHH | not soluble
3 | EAVREMVCEDDLSQTFITDGSLPACDITLEQAQNLARHVWGQGFAPPSFTDEFHVVRQQPLGAEGKHKKVWLQKDGCEFEAMFWRCSEDIPEYIRTVYRPVANEWRNNLELQLYIDYWEAA | not soluble
4 | MVVVTGREPDSRRQDGAMSSSDAEDDFLEPATPTATQAGHALPLLPQEFPEVVPLNIGGAHFTTRLSTLRCYEDTMLAAMFSGRHYIPTDSEGRYFIDRDGTHFGDVLNFLRSGDLPPRERVRAVYKEAQYYAIGPLLEQLENMQPLKGEKVRQAFLGLMPYYKDHLERIVEIARLRAVQRKARFAKLKVCVFKEEMPITPYECPLLNSLRFERSESDGQLFEHHCEVDVSFGPWEAVADVYDLLHCLVTDLSAQGLTVDHQCIGVCDKHLVNHYYCKRPIYEFKITW | soluble
5 | MPQGSALSDTERAQLDVMKLLNVSLHEMSRKISRSRHCIRVYLKDPVSYGTSKRAPRRKALSVRDERNVIRAASNSCKTARDIRNELQLSASKRTILNVIKRSGVIVRQKLRPAPLLSADHKLKRLEFAKNNMGTNWSKVVFSDEKKFNLDGPDGCRYYWRDLRKEPMVFSRRNFGGGTVMVWGAFTEKKKLEIQFVSSKMNSTDYQNVLELELSKYLRHYSGKDFRFQQDNATIHVSNSTRDYFKLKKINLLDWPARSPDLNPIENLWGILVRIVYAQNKTYPTVASLKQGILDAWKSIPDNQLKSLVRSMEDRLFEIIRTQGNPINY | not soluble
6 | MEKLVEWENCVSVIEAAILKHKYKQKVNKNIPSLLRVQAHIRKKMVAQ | soluble
7 | MSLRKASVFIVELKFEQESCPLGVVIPLEESKNKLASVKPLVDLTRADMEQVNQLILSRAGSDVQMIPEVANHLISSGGKRLRPMLTLASASMFGYEGDHHIKLATSVEFMHTATLLHDDVVDESDLRRGKSTARTIWGNQASVLVGDFLLGQAFRMMVDVGSLDALDVLSTAASVIAEGEVLQLSVAKNMETTEDDYLQVIRAKTAALFAAAAEVGPIVAKTDKASRSALKSYGMNLGLAFQLVDDVLDYGGKSADLGKNTGDDFREGKITLPVILSYRRGTQDERAFWRNAIENGESSDENLEKALGLITKYNGLGDTIGRATHYGTIARDALAPLPESPWKNALLEVIDFCIERLNEGHHHHHH | soluble
8 | MFRVTCIDLENGEFALYINGHYLSSEDGSGEKLYLGDILERLSRLPGVTTETVERPVPDSDEWSWNDVADSVFPACITLSRNMTVAAFKQRLSRFPDDALCCGTFWLASDFLALDSSLTEDDIDAAMELAQHCHDANDGFNWSHLQWAIDEVKRGG | not soluble
9 | MALKGEGLQGLLGRGEARLGVGGEEAFQVKGGLLAEPRHGRMGSPVGVQGDLARGVGEGVLPGEHPVEDDPGGVDVSLGARGQAPDELGGQVGGGAQEKGLLETLLGGAREVKVQEAGLPGVHQDVLGLHVPVDQALFVHVGEGEEELVEDPHRLGKRGAFPHPAAELLPRGVGQEEGGAFLQVQGLEDGVEVGVGEPSPHPKLPVPAGAGLRGEELEGVGGAEGVKGQVDPGQGPAGQGPHHPVAAREGFAHQAHRPHYTLRKPGYHGPMRGLVLSGGGARGFAHIGALEVFVEAGLDFEVVAGASMGAIVGALFAAGRSPQEILEIARNTPWLGILGFSFREALFSRGRLRRYLAEHLPQDFADLKRRLVVTAVEVRSGRVVYLFQGDLVSAVLASAAHPLLLRPVRREGLLLFDGGVLDNLPVDAARFLGAEEVWAVDVTPERSVEKPPEGVLGLALRAVDLMQHHLTASRMALYAPEVYLRPELGEVAVQDFLRLEEAVEAGRKAAKRFLESRVGEV | soluble
10 | MVRKVNIIKGNEGQGKRIKFVQLIFVDINGMPKGMEVPITRLEEAIEEGIAFDGSSVPGFQGIEDSDLVFKADPSTYVEVPWDNVARVYGYIYKDGKPYEADPRGVLRRTLERLEKLGIKVYIGPEPEFYLFKKNGSWELEIPDVGGYFDILTLDKAKDIKREIAEYMPYFGLTPEVLHHEVGKAQHEIDFRHDEALKTADNIVSFKYIVKAVAEMHGLYATFMPKPIYGMPGNGMHLHISLWKDGENIFKGEEGLSETALYFIGGLLKHAKALAAVTNPTVNSYKRLVPGYEAPVYISWGYKNRSALIRVPAFWGNGARIEYRCPDPSANSYLAFAAILMAGLDGIKHKIEPFAYVEENVYEMDEKRREEIGIDMLPENLGEALDELERDKVVKEALGGAYRNFVGYKRKEWEEYLDYLEAKNLPKDTKNVTEWELERYFFI | soluble
11 | MGSDKIHHHHHHMIQNTFNIAGGVARNPLVRLAAPITATISAGEHIAIVGPNGGGKSLFVDTLIGKYPLREGTLQYDFSPAATQTVYDNVKYIAFRDTYGAADANYYYQQRWNAHDQDEAPDVREMLGEIKDEQLKQELFELFRIEPMLDKKIILLSSGELRKFQLVKTLLTAPRVLIMDNPFIGLDAPTRELLFSLLDRLTKMSSVQIILVLSMLDDIPSFITHVIPVDKMTVYPKMEREAYLEAFRSRDAAVSFDELQQRIVNLPYDGNNYDSDEVVKLNKVSIRYDDRTILKDLDWTVRRGEKWALSGENGAGKSTLLSLVCADNPQSYACDISLFGRKRGTGESIWEIKKHIGYVSPEMHRAYLKNLPAIEIVASGLHDSIGLYKRPQPEQMAICEWWMDIFGIAELKDNPFLQLSSGEQRLALLARAFVKDPELLILDEPLHGLDTYNRRRVKKIIEAFCHRKDKTMIMVTHYESELPGTITDRIFLKRNR | not soluble
12 | MGSDKIHHHHHHMKLRELLSIGDLKKGKILTKEIGLDNEVDSAMVLEAIDIENWSRKNQLILTSFYALHDLPEKELENFFVKMRRIGISGLILKTDRFIKMIPEWFIELCFNYEIPLIKITQDISYEKILFTIYEPLLNYQSHVLRTYYDVRQRFTKLERHYPTVETIMQEFYDIIKLPFALKMLDKHLEISDGDLPHDAIVLSREKLKNSEFTKNDYSLLTLYSHANPKKQLALEVSIFNSYSTNCLLLVYLQDEKVKETDLVIIENAIDVLQEKFNTENLLKKERYTRLNNLADAILQNTPQNPDELNSLLREVQMQELDSYQAIAFSTKDTNTQLMKERIIALLRTLRVKSIFFDQLNYSAVLFNFNESDGKITKLQLSRLLAELLEENDTLTVAVSSLKSREGIKELLIECLDILRFNETFYNGPIVTLADIGVFKNFIREDQLENLDELIPRALYQLAENNYDLFETLYSFFQNNRNYKQTSEAMFLHSKTIRYRLNKVEQLLDIDLANPLQLLNYEIATYIIKMRRRALEKQSNTR | not soluble
13 | MAFEATKREWCELYTFFRLLTEGKVTLGTAKAKKGEIDWPIAMIQREEHDGTRCYYIEKEMVRIKGENSEKFVPREDFGIVADLILQAVKSSSEDEVTSPDGVEEFLDEVAIFDLEAKTEDRTDFYIAFWHPEAPLSGFSVRSRLGAMNPLLDGGRAANLKLEQSGVKFATPTVNKINALPEAPNEVAERMLLIERLGGVLKYSDVADRVFRSNLLMIDLHFPRVLTEMVRIMHLDDITRISELTEVIKQMNPLKIKDELVNKHGFYEFKVKQFLMALALGMRPAKIYTGQDSAVEGILLMDGSGEVLCYHKSEKPVMEDFLFLNTRLEKGSLDKDKYGFLERENGTYYFKLNAKIGLVKR | not soluble
